Experiments:
[1] = target: TraWF in the BACTH-TM vectors (E. coli (F-plasmid)) (UniProt P18472); assay: two-hybrid
[2] = target: TraBN with T18 or T25 at its N-terminus (BACTH) (Neisseria gonorrhoeae MS11) (UniProt Q5EPB9); assay: two-hybrid

Row | Substance | β-galactosidase signal over background (times above the background level) [1] | β-galactosidase signal over background (times above the background level) [2]
1 | TraVF in the BACTH-TM vectors (from UniProt P41069 19-171) (natural protein) | 8 | –
2 | TrbCN in the BACTH-TM vectors (natural protein) | – | 4
